To fix the notation:
B1: Hsd17b4 (protein, UniProt P51660 1-735, looked up)
Peroxisomal multifunctional …: MASPLRFDGRVVLVTGAGGGLGRAYALAFAERGALVIVNDLGGDFKGIGKGSSAADKVVAEIRRKGGKAVANYDSVEAGEKLVKTALDTFGRIDVVVNNAGILRDRSFSRISDEDWDIIHRVHLRGSFQVTRAAWDHMKKQNYGRILMTSSASGIYGNFGQANYSAAKLGILGLCNTLAIEGRKNNIHCNTIAPNAGSRMTETVLPEDLVEALKPEYVAPLVLWLCHESCEENGGLFEVGAGWIGKLRWERTLGAIVRKRNQPMTPEAVRDNWEKICDFSNASKPQTIQESTGGIVEVLHKVDSEGISPNRTSHAAPAATSGFVGAVGHKLPSFSSSYTELQSIMYALGVGASVKNPKDLKFVYEGSADFSCLPTFGVIVAQKSMMNGGLAEVPGLSFNFAKALHGEQYLELYKPLPRSGELKCEAVIADILDKGSGVVIVMDVYSYSGKELICYNQFSVFVVGSGGFGGKRTSEKLKAAVAVPNRPPDAVLRDATSLNQAALYRLSGDWNPLHIDPDFASVAGFEKPILHGLCTFGFSARHVLQQFADNDVSRFKAIKVRFAKPVYPGQTLQTEMWKEGNRIHFQTKVHETGDVVISNAYVDLVPASGVSTQTPSEGGELQSALVFGEIGRRLKSVGREVVKKANAVFEWHITKGGTVAAKWTIDLKSGSGEVYQGPAKGSADVTIIISDEDFMEVVFGKLDPQKAFFSGRLKARGNIMLSQKLQMILKDYAKL
B2: Itgb5 (protein, UniProt O70309 24-798, looked up)
Integrin beta-5: GLNICTSGSATSCEECLLIHPKCAWCSKEYFGNPRSITSRCDLKANLIRNGCEGEIESPASSTHVLRNLPLSSKGSSATGSDVIQMTPQEIAVSLRPGEQTTFQLQVRQVEDYPVDLYYLMDLSLSMKDDLENIRSLGTKLAEEMRKLTSNFRLGFGSFVDKDISPFSYTAPRYQTNPCIGYKLFPNCVPSFGFRHLLPLTDRVDSFNEEVRKQRVSRNRDAPEGGFDAVLQAAVCKEKIGWRKDALHLLVFTTDDVPHIALDGKLGGLVQPHDGQCHLNEANEYTASNQMDYPSLALLGEKLAENNINLIFAVTKNHYMLYKNFTALIPGTTVEILHGDSKNIIQLIINAYSSIRAKVELSVWDQPEDLNLFFTATCQDGISYPGQRKCEGLKIGDTASFEVSVEARSCPGRQAAQSFTLRPVGFRDSLQVEVAYNCTCGCSTGLEPNSARCSGNGTYTCGLCECDPGYLGTRCECQEGENQSGYQNLCREAEGKPLCSGRGECSCNQCSCFESEFGRIYGPFCECDSFSCARNKGVLCSGHGECHCGECKCHAGYIGDNCNCSTDVSTCKAKDGQICSDRGRCVCGQCQCTEPGAFGETCEKCPTCPDACSSKRDCVECLLLHQGKPDNQTCHHQCKDEVITWVDTIVKDDQEAVLCFYKTAKDCVMMFSYTELPNGRSNLTVLREPECGSAPNAMTILLAVVGSILLIGMALLAIWKLLVTIHDRREFAKFQSERSRARYEMASNPLYRKPISTHTVDFAFNKFNKSYNGSV
B3: Sec31a (protein, UniProt Q3UPL0 1-1230, looked up)
Protein transport protein …: MKLKEIDRTAMQAWSPAQNHPIYLATGTSAQQLDATFSTNASLEIFELDLSDPSLDMKSCATFSSSHRYHKLIWGPHKMDSKGDVSGVLIAGGENGNIILYDPSKIIAGDKEVVIAQKDKHTGPVRALDVNIFQTNLVASGANESEIYIWDLNNFATPMTPGAKTQPPEDISCIAWNRQVQHILASASPSGRATVWDLRKNEPIIKVSDHSNRMHCSGLAWHPDVATQMVLASEDDRLPVIQMWDLRFASSPLRVLENHARGILAVAWSMADPELLLSCGKDAKILCSNPNTGEVLYELPTNTQWCFDIQWCPRNPAVLSAASFDGRISVYSIMGGSIDGLRQKQVDKLSSSFGNLDPFGTGQPLPPLQIPQQSAQHSIVLPLKKPPKWIRRPVGASFSFGGKLVTFESVAVPLQQGAEQQRRQPVFISQVVTEKDFLNRSAQLQHAVQSQGFIGYCQKKIEASQTEFEKNVWSFLKVNFEEDSRGKYLELLGYRKEDLGQKIALALNKVDGPDVALKDSDQVAQSDGEESPAAEEQLLGERIKEEKQECDFLPSAGGTFNISVSGDIDGLITRALLTGNFESAVDLCLHDNRMADAIILAIAGGQELLAQTQKKYFAKSQSKITRLITAVVMKNWREIVESCDLKNWREALAAVLTYAKPDEFSALCDLLGTRLEREGDSLLRTQACLCYICAGNVERLVACWTKAQDGSSPLSLQDLIEKVVILRKAVQLTQALDTNTVGALLAEKMSQYASLLAAQGSIAAALAFLPDNTNQPNIVQLRDRLCKAQGKPVSGQESSQSPYERQPLSKGRPGPVAGHSQMPRVQTQQYYPHGENPPPPGFIMQGNVIPNPAAPLPTAPGHMPSQLPPYPQPQPYQPAQQYSFGTGGAAAYRPQQPVAPPASNAYPNTPYISPVASYSGQPQMYTAQQASSPTSSSAASFPPPSSGASFQHGGPGAPPSSSAYALPPGTTGTPPAASELPASQRTENQSFQDQASILEGPQNGWNDPPALNRVPKKKKMPENFMPPVPITSPIMNPSGDPQSQGLQQQPSTPGPLSSHASFPQQHLAGGQPFHGVQQPLAQTGMPPSFSKPNTEGAPGAPIGNTIQHVQALPTEKITKKPIPEEHLILKTTFEDLIQRCLSSATDPQTKRKLDDASKRLEFLYDKLREQTLSPTIINGLHSIARSIETRNYSEGLSVHTHIVSTSNFSETSAFMPVLKVVLSQASKLGV
B4: Mtap (protein, UniProt Q9CQ65 1-283, looked up)
S-methyl-5'-thioadenosine …: MASGSACTAVKIGIIGGTGLDDPEILEGRTEKYVDTPFGKPSDALILGKIKNVDCVLLARHGRQHTIMPSKVNYQANIWALKEEGCTHVIVTTACGSLREEIQPGDMVIIDQFIDRTSLRPQTFYDGSHCSARGVCHIPMAEPFCPKTREVLIETAKKLGLRCHSKGTIVTIEGPRFSSRAESLIFRTWGADVVNMTTVPEVVLAKEAGICYASIAMATDYDCWKEHEEAVSVDGVLKTMKENANKAKSLLLTTIPQIGSMEWSETLRNLKNMAQFSVLPPRH
B5: Atp6v1h (protein, UniProt Q8BVE3 1-483, looked up)
V-type proton ATPase subunit H: MTKMDIRGAVDAAVPTNIIAAKAAEVRANKVNWQSYLQGQMISAEDCEFIQRFEMKRSSEDKQEMLQTEGSQCAKTFINLMTHISKEQTVQYILTMVDDMLQENHQRVSIFFDYAKRSKSTAWPYFLPMLNRQDPFTVHMAARIIAKLAAWGKELMEGSDLNYYFNWIKTQLSSQKLRGSGVAVETGTISSSDSSQYVQCVAGCLQLMLRVNEYRFAWVEADGVNCIMGVLSNKCGFQLQYQMIFSIWLLAFSPQMCEHLRRYNIIPVLSDILQESVKEKVTRIILAAFRNFLEKSTERETRQEYALAMIQCKVLKQLENLEQQKYDDEDISEDIKFLLEKLGESVQDLSSFDEYSSELKSGRLEWSPVHKSEKFWRENAVRLNEKNYELLKILTKLLEVSDDPQVLAVAAHDVGEYVRHYPRGKRVIEQLGGKQLVMNHMHHEDQQVRYNALLAVQKLMVHNWEYLGKQLQSEQPQTAAARS
B6: Mri1 (protein, UniProt Q9CQT1 1-369, looked up)
Methylthioribose-1-phosphate …: MTLEAIRYSPGSLQILDQLQLPEHCHYEALSSVQQASEAIRAMKVRGAPAIALVGCLSLAVELRAGAGGPGLAALVAFVRDQLRLLVAARPTAVNMARAARDLGQVAAQEAEREGATEETVRERVIRFAEDMLEKDLKDNRSIGDLGARHLLEQTNPRGGKVTVLTHCNTGALATAGYGTALGVIRSLHEMGRLEHTFCTETRPYNQGARLTAFELVYEQIPATLITDSMAAAAMAHRGVSAVVVGADRVVANGDTANKIGTYQLAIVAKHHGVPFYVAAPSSSCDLHLETGKEIVIEERPSQELTDLNGVRIAAQGIRVWNPAFDVTPHELITGGIITELGVFAPEELRGALSASVFSEGQTLDSPWV
B7: Efemp1 (protein, UniProt Q8BPB5 18-493, looked up)
EGF-containing fibulin-like …: QYTEETITYTQCTDGYEWDPIRQQCKDIDECDIVPDACKGGMKCVNHYGGYLCLPKTAQIIVNNEHPQQETPAAEASSGATTGTVAARSMATSGVVPGGGFMASATAVAGPEVQTGRNNFVIRRNPADPQRIPSNPSHRIQCAAGYEQSEHNVCQDIDECTSGTHNCRTDQVCINLRGSFTCQCLPGYQKRGEQCVDIDECTVPPYCHQRCVNTPGSFYCQCSPGFQLAANNYTCVDINECDASNQCAQQCYNILGSFICQCNQGYELSSDRLNCEDIDECRTSSYLCQYQCVNEPGKFSCMCPQGYEVVRSRTCQDINECETTNECREDEMCWNYHGGFRCYPRNPCQDHYVLTSENRCVCPVSNTMCRELPQSIVYKYMSIRSDRSVPSDIFQIQATMIYANTINTFRIKSGNENGEFYLRQTSPVSAMLVLVKSLSGPREYIVDLEMLTVSSIGTFRTSSVLRLTIIVGPFSF

The first assay relates to WT MEF EVs. The assay is described as follows: Quantitative LC-MS/MS proteomics of EVs from ISRIB-treated WT MEF cultures. In kind it is cell-based, mouse. Further details: key to ISRIB and DYT Parallel Direction / ISRIB and DYT Parallel Direction, Ctdsp1 / ISRIB and DYT Parallel Direction, Pcdh19 / ISRIB and DYT Parallel Direction, Tspan7 / ISRIB and DYT Parallel Direction, Myo1e / ISRIB and DYT Parallel Direction, Plpp3 / ISRIB and DYT Parallel Direction, Sh3bp4 / ISRIB and DYT Parallel Direction, Dnajc7 / ISRIB and DYT Parallel Direction, Drg1 / ISRIB and DYT Parallel Direction, Maea: YES = protein abundance effect similar to DYT/WT. To be noted: EV protein abundance, ISRIB-treated WT vs WT.
Turning to B1, the “WT + ISRIB/WT Cohen's d” value is given as −2.20.
The same measure, in the same setting: with B2 the figure was 1.22; with B3, −1.34; with B4, −0.85.
On the same count and under the same terms, with B5 the figure was −0.66.
In the case of B6, the “WT + ISRIB/WT Cohen's d” value is −0.01.
On the same count and under the same terms, with B7 the figure was 0.07.

Staying with this assay, now noted: EV protein abundance, WT + ISRIB vs WT, direction compared with DYT/WT.
On to B1, for which the “ISRIB and DYT Parallel Direction” value is “YES”.
For B2, the “ISRIB and DYT Parallel Direction” value is “YES”.
As for B3, the “ISRIB and DYT Parallel Direction” value is reported as “YES”.
B4: the “ISRIB and DYT Parallel Direction” value is reported as “YES”.
For the molecule B5, the “ISRIB and DYT Parallel Direction” value is “YES”.
As for B6, the “ISRIB and DYT Parallel Direction” value is listed as “YES”.
The same measure, in the same setting: with B7 the entry was “YES”.

Another assay concerns DYT-TOR1A MEF EVs. The assay is described as follows: Quantitative LC-MS/MS proteomics of EVs from drug-treated DYT-TOR1A MEF cultures (ritonavir, salubrinal). Format: cell-based, mouse. Further details: key to RTV Corrective Direction / RTV Corrective Direction, Grwd1 / RTV Corrective Direction, Srrm2 / RTV Corrective Direction, Rbm17 / RTV Corrective Direction, Dcaf8 / RTV Corrective Direction, Edil3 / RTV Corrective Direction, Timp3 / RTV Corrective Direction, Heatr3 / RTV Corrective Direction, Brd4 / RTV Corrective Direction, P3h4 / RTV Corrective Direction, Pacsin3 / RTV Corrective Direction, Naa50 / RTV Corrective Direction, Lpar6 / RTV Corrective Direction, Ndrg1 / RTV Corrective Direction, Kntc1 / RTV Corrective Direction, Cdk11b / RTV Corrective Direction, Sumo1 / RTV Corrective Direction, Lsm4 / RTV Corrective Direction, Hmga2 / RTV Corrective Direction, Cstf1 / RTV Corrective Direction, Tes / RTV Corrective Direction, Sbno1 / RTV Corrective Direction, Unc119b / RTV Corrective Direction, Cfdp1 / RTV Corrective Direction, Sec61b: YES = protein abundance effect opposite to DYT/WT. To be noted: EV protein abundance, DYT + RTV (ritonavir) vs DYT, direction compared with DYT/WT.
On to B1, for which the “RTV Corrective Direction” value is “YES”.
For the molecule B2, the “RTV Corrective Direction” value is on record as “YES”.
As to B3, the “RTV Corrective Direction” value is reported as “YES”.
For B4, the “RTV Corrective Direction” value was “YES”.
B5: the “RTV Corrective Direction” value is on record as “YES”.
On to B6, for which the “RTV Corrective Direction” value is listed as “YES”.
For the molecule B7, the “RTV Corrective Direction” value is “YES”.

Still in this assay, the particulars now being: EV protein abundance, ritonavir (RTV)-treated DYT vs DYT.
Regarding B1, the “DYT + RTV/DYT Cohen's d” value was 4.01.
For the molecule B2, the “DYT + RTV/DYT Cohen's d” value is listed as −4.69.
On to B3, for which the “DYT + RTV/DYT Cohen's d” value worked out at 5.50.
Same read-out and setting: with B4 the figure was 3.50; with B5, 4.82.
As for B6, the “DYT + RTV/DYT Cohen's d” value is given as 5.85.
Regarding B7, the “DYT + RTV/DYT Cohen's d” value is −4.60.

Source of the values: patent publication US20260266848A1, “COMPOSITIONS AND METHODS FOR DIAGNOSING AND TREATING DYSTONIA” (Duke University, priority 2023, published 2026).
